# Source: publication PMC10764275
# pKd: −log10 of the molar value.
# Target: Human ACE2 with Fc tag (human) (UniProt Q9BYF1)
# Assay: SPR
# Sequence of Human ACE2 with Fc tag (human) (Q9BYF1 18-740): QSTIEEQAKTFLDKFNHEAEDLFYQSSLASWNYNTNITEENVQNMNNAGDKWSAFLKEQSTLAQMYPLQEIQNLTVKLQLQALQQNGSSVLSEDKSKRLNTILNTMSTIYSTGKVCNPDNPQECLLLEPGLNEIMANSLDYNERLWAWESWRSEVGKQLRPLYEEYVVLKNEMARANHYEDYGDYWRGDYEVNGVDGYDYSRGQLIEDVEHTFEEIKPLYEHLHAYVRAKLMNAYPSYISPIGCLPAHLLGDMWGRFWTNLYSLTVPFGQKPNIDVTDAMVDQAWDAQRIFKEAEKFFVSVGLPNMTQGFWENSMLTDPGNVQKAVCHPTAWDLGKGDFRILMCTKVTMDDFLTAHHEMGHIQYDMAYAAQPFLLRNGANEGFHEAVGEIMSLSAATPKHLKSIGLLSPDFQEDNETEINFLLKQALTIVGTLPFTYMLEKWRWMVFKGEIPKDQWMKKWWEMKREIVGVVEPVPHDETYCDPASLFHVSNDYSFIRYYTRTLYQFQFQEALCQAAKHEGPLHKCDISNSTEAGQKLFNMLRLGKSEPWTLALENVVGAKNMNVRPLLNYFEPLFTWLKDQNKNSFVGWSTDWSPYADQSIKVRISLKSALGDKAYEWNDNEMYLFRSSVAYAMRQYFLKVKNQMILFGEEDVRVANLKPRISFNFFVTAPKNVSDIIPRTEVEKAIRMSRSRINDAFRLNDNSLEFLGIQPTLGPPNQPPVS
substance,measurement,value
WT RBD,pKd,7.80
same,koff,0.0051 s⁻¹
